Source: US20250171562A1 (ALK ABELL, published 2025)

B1: CIgG4F4A1(G4S)1 (Fc fusion)
chain 1: GPPCPPCPAPEFLGGPSVFLFPPKPKDTLMISRTPEVTCVVVDVSQEDPEVQFNWYVDGVEVHNAKTKPREEQFNSTYRVVSVLTVLHQDWLNGKEYKCKVSNKGLPSSIEKTISKAKGQPREPQVYTLPPCQEEMTKNQVSLWCLVKGFYPSDIAVEWESNGQPENNYKTTPPVLDSDGSFFLYSRLTVDKSRWQEGNVFSCSVMHEALHNHYTQKSLSLSLGKGGGGSDVQLQESGGGLVQAGGSLRLSCAVSGLSFSSMGWFRQPPGKEREFVAAISLYSGSTYYADSVKGRFTISSDNAKSTVYLQMNSLKPEDAAVYFCAADRQRTWSTFYASRQATYNYWGQGTQVTVTS
chain 2: GPPCPPCPAPEFLGGPSVFLFPPKPKDTLMISRTPEVTCVVVDVSQEDPEVQFNWYVDGVEVHNAKTKPREEQFNSTYRVVSVLTVLHQDWLNGKEYKCKVSNKGLPSSIEKTISKAKGQPREPQVCTLPPSQEEMTKNQVSLSCAVKGFYPSDIAVEWESNGQPENNYKTTPPVLDSDGSFFLVSRLTVDKSRWQEGNVFSCSVMHEALHNHYTQKSLSLSLGKGGGGSEVQLLESGGGLVQPGGSLRLSCAASGFTFGNYDMAWVRQAPGKRPEWVSSIDTGGDITHYADSVKGRFTISRDNAKNTLYLQMNSLRPEDTAVYWCATDEEYALGPNEFDYYGQGTLVTVSS
B2: CIgG4F4A1(G4S)2 (Fc fusion)
chain 1: GPPCPPCPAPEFLGGPSVFLFPPKPKDTLMISRTPEVTCVVVDVSQEDPEVQFNWYVDGVEVHNAKTKPREEQFNSTYRVVSVLTVLHQDWLNGKEYKCKVSNKGLPSSIEKTISKAKGQPREPQVYTLPPCQEEMTKNQVSLWCLVKGFYPSDIAVEWESNGQPENNYKTTPPVLDSDGSFFLYSRLTVDKSRWQEGNVFSCSVMHEALHNHYTQKSLSLSLGKGGGGSGGGGSDVQLQESGGGLVQAGGSLRLSCAVSGLSFSSMGWFRQPPGKEREFVAAISLYSGSTYYADSVKGRFTISSDNAKSTVYLQMNSLKPEDAAVYFCAADRQRTWSTFYASRQATYNYWGQGTQVTVTS
chain 2: GPPCPPCPAPEFLGGPSVFLFPPKPKDTLMISRTPEVTCVVVDVSQEDPEVQFNWYVDGVEVHNAKTKPREEQFNSTYRVVSVLTVLHQDWLNGKEYKCKVSNKGLPSSIEKTISKAKGQPREPQVCTLPPSQEEMTKNQVSLSCAVKGFYPSDIAVEWESNGQPENNYKTTPPVLDSDGSFFLVSRLTVDKSRWQEGNVFSCSVMHEALHNHYTQKSLSLSLGKGGGGSGGGGSEVQLLESGGGLVQPGGSLRLSCAASGFTFGNYDMAWVRQAPGKRPEWVSSIDTGGDITHYADSVKGRFTISRDNAKNTLYLQMNSLRPEDTAVYWCATDEEYALGPNEFDYYGQGTLVTVSS
B3: CIgG4F4A1(G4S)3 (Fc fusion)
chain 1: GPPCPPCPAPEFLGGPSVFLFPPKPKDTLMISRTPEVTCVVVDVSQEDPEVQFNWYVDGVEVHNAKTKPREEQFNSTYRVVSVLTVLHQDWLNGKEYKCKVSNKGLPSSIEKTISKAKGQPREPQVYTLPPCQEEMTKNQVSLWCLVKGFYPSDIAVEWESNGQPENNYKTTPPVLDSDGSFFLYSRLTVDKSRWQEGNVFSCSVMHEALHNHYTQKSLSLSLGKGGGGSGGGGSGGGGSDVQLQESGGGLVQAGGSLRLSCAVSGLSFSSMGWFRQPPGKEREFVAAISLYSGSTYYADSVKGRFTISSDNAKSTVYLQMNSLKPEDAAVYFCAADRQRTWSTFYASRQATYNYWGQGTQVTVTS
chain 2: GPPCPPCPAPEFLGGPSVFLFPPKPKDTLMISRTPEVTCVVVDVSQEDPEVQFNWYVDGVEVHNAKTKPREEQFNSTYRVVSVLTVLHQDWLNGKEYKCKVSNKGLPSSIEKTISKAKGQPREPQVCTLPPSQEEMTKNQVSLSCAVKGFYPSDIAVEWESNGQPENNYKTTPPVLDSDGSFFLVSRLTVDKSRWQEGNVFSCSVMHEALHNHYTQKSLSLSLGKGGGGSGGGGSGGGGSEVQLLESGGGLVQPGGSLRLSCAASGFTFGNYDMAWVRQAPGKRPEWVSSIDTGGDITHYADSVKGRFTISRDNAKNTLYLQMNSLRPEDTAVYWCATDEEYALGPNEFDYYGQGTLVTVSS
B4: CIgG4F5A1(RS) (Fc fusion)
chain 1: GPPCPPCPAPEFLGGPSVFLFPPKPKDTLMISRTPEVTCVVVDVSQEDPEVQFNWYVDGVEVHNAKTKPREEQFNSTYRVVSVLTVLHQDWLNGKEYKCKVSNKGLPSSIEKTISKAKGQPREPQVYTLPPCQEEMTKNQVSLWCLVKGFYPSDIAVEWESNGQPENNYKTTPPVLDSDGSFFLYSRLTVDKSRWQEGNVFSCSVMHEALHNHYTQKSLSLSLGKRSDVQLQESGGGLVQPGGSLRLSCAASGSIFSIDIMGWYRQAPGKQRELVATMPEGNYINYADSVKGRLTLSRDKGKNTVYLQLNSLKPEDTAVYYCYGFGVREGRGNVYWGQGTQVTVS
chain 2: GPPCPPCPAPEFLGGPSVFLFPPKPKDTLMISRTPEVTCVVVDVSQEDPEVQFNWYVDGVEVHNAKTKPREEQFNSTYRVVSVLTVLHQDWLNGKEYKCKVSNKGLPSSIEKTISKAKGQPREPQVCTLPPSQEEMTKNQVSLSCAVKGFYPSDIAVEWESNGQPENNYKTTPPVLDSDGSFFLVSRLTVDKSRWQEGNVFSCSVMHEALHNHYTQKSLSLSLGKRSEVQLLESGGGLVQPGGSLRLSCAASGFTFGNYDMAWVRQAPGKRPEWVSSIDTGGDITHYADSVKGRFTISRDNAKNTLYLQMNSLRPEDTAVYWCATDEEYALGPNEFDYYGQGTLVTVSS
B5: CIgG4F5A1(G4S)1 (Fc fusion)
chain 1: GPPCPPCPAPEFLGGPSVFLFPPKPKDTLMISRTPEVTCVVVDVSQEDPEVQFNWYVDGVEVHNAKTKPREEQFNSTYRVVSVLTVLHQDWLNGKEYKCKVSNKGLPSSIEKTISKAKGQPREPQVYTLPPCQEEMTKNQVSLWCLVKGFYPSDIAVEWESNGQPENNYKTTPPVLDSDGSFFLYSRLTVDKSRWQEGNVFSCSVMHEALHNHYTQKSLSLSLGKGGGGSDVQLQESGGGLVQPGGSLRLSCAASGSIFSIDIMGWYRQAPGKQRELVATMPEGNYINYADSVKGRLTLSRDKGKNTVYLQLNSLKPEDTAVYYCYGFGVREGRGNVYWGQGTQVTVS
chain 2: B1 chain 2
B6: CIgG4F5A1(G4S)2 (Fc fusion)
chain 1: GPPCPPCPAPEFLGGPSVFLFPPKPKDTLMISRTPEVTCVVVDVSQEDPEVQFNWYVDGVEVHNAKTKPREEQFNSTYRVVSVLTVLHQDWLNGKEYKCKVSNKGLPSSIEKTISKAKGQPREPQVYTLPPCQEEMTKNQVSLWCLVKGFYPSDIAVEWESNGQPENNYKTTPPVLDSDGSFFLYSRLTVDKSRWQEGNVFSCSVMHEALHNHYTQKSLSLSLGKGGGGSGGGGSDVQLQESGGGLVQPGGSLRLSCAASGSIFSIDIMGWYRQAPGKQRELVATMPEGNYINYADSVKGRLTLSRDKGKNTVYLQLNSLKPEDTAVYYCYGFGVREGRGNVYWGQGTQVTVS
chain 2: B2 chain 2
B7: CIgG4F5A1(G4S)3 (Fc fusion)
chain 1: GPPCPPCPAPEFLGGPSVFLFPPKPKDTLMISRTPEVTCVVVDVSQEDPEVQFNWYVDGVEVHNAKTKPREEQFNSTYRVVSVLTVLHQDWLNGKEYKCKVSNKGLPSSIEKTISKAKGQPREPQVYTLPPCQEEMTKNQVSLWCLVKGFYPSDIAVEWESNGQPENNYKTTPPVLDSDGSFFLYSRLTVDKSRWQEGNVFSCSVMHEALHNHYTQKSLSLSLGKGGGGSGGGGSGGGGSDVQLQESGGGLVQPGGSLRLSCAASGSIFSIDIMGWYRQAPGKQRELVATMPEGNYINYADSVKGRLTLSRDKGKNTVYLQLNSLKPEDTAVYYCYGFGVREGRGNVYWGQGTQVTVS
chain 2: B3 chain 2
B8: CIgG4F6A1(RS) (Fc fusion)
chain 1: GPPCPPCPAPEFLGGPSVFLFPPKPKDTLMISRTPEVTCVVVDVSQEDPEVQFNWYVDGVEVHNAKTKPREEQFNSTYRVVSVLTVLHQDWLNGKEYKCKVSNKGLPSSIEKTISKAKGQPREPQVYTLPPCQEEMTKNQVSLWCLVKGFYPSDIAVEWESNGQPENNYKTTPPVLDSDGSFFLYSRLTVDKSRWQEGNVFSCSVMHEALHNHYTQKSLSLSLGKRSDVQLQESGGGLVQAGGSLRLSCAASGLTFGSYDMGWYRQAPGKQRELVGRIRNDGITYYADSVKGRFTMSRDNAKNTVYLQMNSLKPEDTAVYYCAADGTGLGHYDYWGQGTQVTVS
chain 2: B4 chain 2

Molecular target: T1, recombinant human IgE (human, UniProt P01854-1 1-428)
T1 construct: made in-house (ALK); preloaded on immobilised FcεRIα in the displacement ELISA
T1 sequence (P01854 other isoform, or with tags, fused parts or gaps): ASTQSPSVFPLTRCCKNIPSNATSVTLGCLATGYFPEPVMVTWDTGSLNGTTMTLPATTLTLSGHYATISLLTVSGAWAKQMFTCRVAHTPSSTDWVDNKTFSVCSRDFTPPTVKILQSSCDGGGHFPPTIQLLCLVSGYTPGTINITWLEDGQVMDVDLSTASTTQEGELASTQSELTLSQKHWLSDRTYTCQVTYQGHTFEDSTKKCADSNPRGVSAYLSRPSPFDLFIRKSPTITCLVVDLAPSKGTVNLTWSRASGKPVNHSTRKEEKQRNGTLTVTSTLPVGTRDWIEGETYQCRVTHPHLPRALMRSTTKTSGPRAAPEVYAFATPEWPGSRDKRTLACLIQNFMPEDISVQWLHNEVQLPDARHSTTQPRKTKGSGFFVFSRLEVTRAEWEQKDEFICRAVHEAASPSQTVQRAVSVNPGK
Experiment: IgE-FcεRIα displacement ELISA
Outline: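 Streptavidin-coated plates carried site-specifically biotinylated recombinant human FcεRIα, loaded with recombinant human IgE at 13 ng/ml. sdAbs in a pM–μM series were added for 1 h, and displaced IgE was washed off. Percent displacement was the signal reduction versus the no-sdAb control, giving EC50 and maximal effect.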

Row | Binder | EC50 [nM] | Max effect [%]
1 | B1 | 17 | 90
2 | B2 | 30 | 90
3 | B3 | 50 | 90
4 | B4 | – | 15
5 | B5 | – | 30
6 | B6 | 580 | 55
7 | B7 | 400 | 65
8 | B8 | – | 20
